In PMC11574045, “A cofactor-induced repressive type of transcription factor condensation can be induced by synthetic peptides to suppress tumorigenesis” (The EMBO Journal, 2024):

B1: NR2F6 (protein, UniProt P10588 1-404, looked up)
Nuclear receptor subfamily 2 …: MAMVTGGWGGPGGDTNGVDKAGGYPRAAEDDSASPPGAASDAEPGDEERPGLQVDCVVCGDKSSGKHYGVFTCEGCKSFFKRSIRRNLSYTCRSNRDCQIDQHHRNQCQYCRLKKCFRVGMRKEAVQRGRIPHSLPGAVAASSGSPPGSALAAVASGGDLFPGQPVSELIAQLLRAEPYPAAAGRFGAGGGAAGAVLGIDNVCELAARLLFSTVEWARHAPFFPELPVADQVALLRLSWSELFVLNAAQAALPLHTAPLLAAAGLHAAPMAAERAVAFMDQVRAFQEQVDKLGRLQVDSAEYGCLKAIALFTPDACGLSDPAHVESLQEKAQVALTEYVRAQYPSQPQRFGRLLLRLPALRAVPASLISQLFFMRLVGKTPIETLIRDMLLSGSTFNWPYGSGQ
B2: NKX2-8 (protein, UniProt O15522 1-239, looked up)
Homeobox protein Nkx-2.8: MATSGRLSFTVRSLLDLPEQDAQHLPRREPEPRAPQPDPCAAWLDSERGHYPSSDESSLETSPPDSSQRPSARPASPGSDAEKRKKRRVLFSKAQTLELERRFRQQRYLSAPEREQLASLLRLTPTQVKIWFQNHRYKLKRARAPGAAESPDLAASAELHAAPGLLRRVVVPVLVRDGQPCGGGGGGEVGTAAAQEKCGAPPAAACPLPGYPAFGPGSALGLFPAYQHLASPALVSWNW
B3: ATF3 (protein, UniProt P18847 1-181, looked up)
Cyclic AMP-dependent …: MMLQHPGQVSASEVSASAIVPCLSPPGSLVFEDFANLTPFVKEELRFAIQNKHLCHRMSSALESVTVSDRPLGVSITKAEVAPEEDERKKRRRERNKIAAAKCRNKKKEKTECLQKESEKLESVNAELKAQIEELKNEKQHLIYMLNLHRPTCIVRAQNGRTPEDERNLFIQQIKEGTLQS
B4: NKX6-3 (protein, UniProt A6NJ46 1-265, looked up)
Homeobox protein Nkx-6.3: MESNLQGTFLLNNTPLAQFPEMKAPVCQYSVQNSFYKLSPPGLGPQLAAGTPHGITDILSRPVAAPNNSLLSGYPHVAGFGGLSSQGVYYSPQVGNFSKAGNEYPTRTRNCWADTGQDWRGGRQCSNTPDPLSDSIHKKKHTRPTFTGHQIFALEKTFEQTKYLAGPERARLAYSLGMTESQVKVWFQNRRTKWRKKSALEPSSSTPRAPGGAGAGAGGDRAPSENEDDEYNKPLDPDSDDEKIRLLLRKHRAAFSVLSLGAHSV
B5: NR0B1/DAX1 (protein, UniProt P51843 1-470, looked up)
Nuclear receptor subfamily 0 …: MAGENHQWQGSILYNMLMSAKQTRAAPEAPETRLVDQCWGCSCGDEPGVGREGLLGGRNVALLYRCCFCGKDHPRQGSILYSMLTSAKQTYAAPKAPEATLGPCWGCSCGSDPGVGRAGLPGGRPVALLYRCCFCGEDHPRQGSILYSLLTSSKQTHVAPAAPEARPGGAWWDRSYFAQRPGGKEALPGGRATALLYRCCFCGEDHPQQGSTLYCVPTSTNQAQAAPEERPRAPWWDTSSGALRPVALKSPQVVCEAASAGLLKTLRFVKYLPCFQVLPLDQQLVLVRNCWASLLMLELAQDRLQFETVEVSEPSMLQKILTTRRRETGGNEPLPVPTLQHHLAPPAEARKVPSASQVQAIKCFLSKCWSLNISTKEYAYLKGTVLFNPDVPGLQCVKYIQGLQWGTQQILSEHTRMTHQGPHDRFIELNSTLFLLRFINANVIAELFFRPIIGTVSMDDMMLEMLCTKI
B6: NKX2-6 (protein, UniProt A6NCS4 1-301, looked up)
Homeobox protein Nkx-2.6: MLLSPVTSTPFSVKDILRLERERSCPAASPHPRVRKSPENFQYLRMDAEPRGSEVHNAGGGGGDRKLDGSEPPGGPCEAVLEMDAERMGEPQPGLNAASPLGGGTRVPERGVGNSGDSVRGGRSEQPKARQRRKPRVLFSQAQVLALERRFKQQRYLSAPEREHLASALQLTSTQVKIWFQNRRYKCKRQRQDKSLELAGHPLTPRRVAVPVLVRDGKPCLGPGPGAPAFPSPYSAAVSPYSCYGGYSGAPYGAGYGTCYAGAPSGPAPHTPLASAGFGHGGQNATPQGHLAATLQGVRAW
B7: NR1I3/CAR1 (protein, UniProt Q14994 1-352, looked up)
Nuclear receptor subfamily 1 …: MASREDELRNCVVCGDQATGYHFNALTCEGCKGFFRRTVSKSIGPTCPFAGSCEVSKTQRRHCPACRLQKCLDAGMRKDMILSAEALALRRAKQAQRRAQQTPVQLSKEQEELIRTLLGAHTRHMGTMFEQFVQFRPPAHLFIHHQPLPTLAPVLPLVTHFADINTFMVLQVIKFTKDLPVFRSLPIEDQISLLKGAAVEICHIVLNTTFCLQTQNFLCGPLRYTIEDGARVSPTVGFQVEFLELLFHFHGTLRKLQLQEPEYVLLAAMALFSPDRPGVTQRDEIDQLQEEMALTLQSYIKGQQRRPRDRFLYAKLLGLLAELRSINEAYGYQIQHIQGLSAMMPLLQEICS
B8: NR2C1/TR2A (protein, UniProt Q505F1 1-590, looked up)
Nuclear receptor subfamily 2 …: MATIEEIAHQIIDQQMGEIVTEQQTGQKIQIVTALDHSTQGKQFILANHEGSTPGKVFLTTPDAAGVNQLFFTSPDLSAPHLQLLTEKSPDQGPNKVFDLCVVCGDKASGRHYGAITCEGCKGFFKRSIRKNLVYSCRGSKDCVINKHHRNRCQYCRLQRCIAFGMKQDSVQCERKPIEVSREKSSNCAASTEKIYIRKDLRSPLAATPTFVTDSETARSAGLLDSGMFVNIHPSGIKTEPAMLMAPDKAESCQGDLSTLASVVTSLANLGKAKDLSHCGGDMPVVQSLRNGDTSFGAFHHDIQTNGDVSRAFDTLAKALTPGESSACQSPEEGMEGSPHLIAGEPSFVEKEGPLLSESHVAFRLTMPSPMPEYLNVHYIGESASRLLFLSMHWALSIPSFQALGQENSISLVKAYWNELFTLGLAQCWQVMNVATILATFVNCLHSSLQQDKMSPERRKSLMEHIFKLQEFCNSMVKLCIDGHEYAYLKAIVLFSPDHPGLENMELIERFQEKAYVEFQDYITRTYPDDTYRLSRLLLRLPALRLMNATITEELFFKGLIGNVRIDSVIPHILKMEPADYNSQIIGHSL
B9: NPM2 (protein, UniProt Q86SE8 1-214, looked up)
Nucleoplasmin-2: MNLSSASSTEEKAVTTVLWGCELSQERRTWTFRPQLEGKQSCRLLLHTICLGEKAKEEMHRVEILPPANQEDKKMQPVTIASLQASVLPMVSMVGVQLSPPVTFQLRAGSGPVFLSGQERYEASDLTWEEEEEEEGEEEEEEEEDDEDEDADISLEEQSPVKQVKRLVPQKQASVAKKKKLEKEEEEIRASVRDKSPVKKAKATARAKKPGFKK
B10: NR0B2/SHP (protein, UniProt Q15466 1-257, looked up)
Nuclear receptor subfamily 0 …: MSTSQPGACPCQGAASRPAILYALLSSSLKAVPRPRSRCLCRQHRPVQLCAPHRTCREALDVLAKTVAFLRNLPSFWQLPPQDQRRLLQGCWGPLFLLGLAQDAVTFEVAEAPVPSILKKILLEEPSSSGGSGQLPDRPQPSLAAVQWLQCCLESFWSLELSPKEYACLKGTILFNPDVPGLQAASHIGHLQQEAHWVLCEVLEPWCPAAQGRLTRVLLTASTLKSIPTSLLGDLFFRPIIGDVDIAGLLGDMLLLR
B11: NKX6-2 (protein, UniProt Q9C056 1-277, looked up)
Homeobox protein Nkx-6.2: MDTNRPGAFVLSSAPLAALHNMAEMKTSLFPYALQGPAGFKAPALGGLGAQLPLGTPHGISDILGRPVGAAGGGLLGGLPRLNGLASSAGVYFGPAAAVARGYPKPLAELPGRPPIFWPGVVQGAPWRDPRLAGPAPAGGVLDKDGKKKHSRPTFSGQQIFALEKTFEQTKYLAGPERARLAYSLGMTESQVKVWFQNRRTKWRKRHAVEMASAKKKQDSDAEKLKVGGSDAEDDDEYNRPLDPNSDDEKITRLLKKHKPSNLALVSPCGGGAGDAL
B12: NR2B3/RXRG (protein, UniProt P28705 1-463, looked up)
Retinoic acid receptor …: MYGNYSHFMKFPTGFGGSPGHTGSTSMSPSVALPTGKPMDSHPSYTDTPVSAPRTLSAVGTPLNALGSPYRVITSAMGPPSGALAAPPGINLVAPPSSQLNVVNSVSSSEDIKPLPGLPGIGNMNYPSTSPGSLVKHICAICGDRSSGKHYGVYSCEGCKGFFKRTIRKDLIYTCRDNKDCLIDKRQRNRCQYCRYQKCLVMGMKREAVQEERQRSRERAESEAECASSSHEDMPVERILEAELAVEPKTESYGDMNVENSTNDPVTNICHAADKQLFTLVEWAKRIPHFSDLTLEDQVILLRAGWNELLIASFSHRSVSVQDGILLATGLHVHRSSAHSAGVGSIFDRVLTELVSKMKDMQMDKSELGCLRAIVLFNPDAKGLSNPSEVETLREKVYATLEAYTKQKYPEQPGRFAKLLLRLPALRSIGLKCLEHLFFFKLIGDTPIDSFLMEMLETPLQIT
B13: NR1H2/LXRB (protein, UniProt P55055 1-460, looked up)
Oxysterols receptor LXR-beta: MSSPTTSSLDTPLPGNGPPQPGAPSSSPTVKEEGPEPWPGGPDPDVPGTDEASSACSTDWVIPDPEEEPERKRKKGPAPKMLGHELCRVCGDKASGFHYNVLSCEGCKGFFRRSVVRGGARRYACRGGGTCQMDAFMRRKCQQCRLRKCKEAGMREQCVLSEEQIRKKKIRKQQQESQSQSQSPVGPQGSSSSASGPGASPGGSEAGSQGSGEGEGVQLTAAQELMIQQLVAAQLQCNKRSFSDQPKVTPWPLGADPQSRDARQQRFAHFTELAIISVQEIVDFAKQVPGFLQLGREDQIALLKASTIEIMLLETARRYNHETECITFLKDFTYSKDDFHRAGLQVEFINPIFEFSRAMRRLGLDDAEYALLIAINIFSADRPNVQEPGRVEALQQPYVEALLSYTRIKRPQDQLRFPRMLMKLVSLRTLSSVHSEQVFALRLQDKKLPPLLSEIWDVHE
B14: NR1F3/RORC (protein, UniProt P51449 1-518, looked up)
Nuclear receptor ROR-gamma: MDRAPQRQHRASRELLAAKKTHTSQIEVIPCKICGDKSSGIHYGVITCEGCKGFFRRSQRCNAAYSCTRQQNCPIDRTSRNRCQHCRLQKCLALGMSRDAVKFGRMSKKQRDSLHAEVQKQLQQRQQQQQEPVVKTPPAGAQGADTLTYTLGLPDGQLPLGSSPDLPEASACPPGLLKASGSGPSYSNNLAKAGLNGASCHLEYSPERGKAEGRESFYSTGSQLTPDRCGLRFEEHRHPGLGELGQGPDSYGSPSFRSTPEAPYASLTEIEHLVQSVCKSYRETCQLRLEDLLRQRSNIFSREEVTGYQRKSMWEMWERCAHHLTEAIQYVVEFAKRLSGFMELCQNDQIVLLKAGAMEVVLVRMCRAYNADNRTVFFEGKYGGMELFRALGCSELISSIFDFSHSLSALHFSEDEIALYTALVLINAHRPGLQEKRKVEQLQYNLELAFHHHLCKTHRQSILAKLPPKGKLRSLCSQHVERLQIFQHLHPIVVQAAFPPLYKELFSTETESPVGLSK

Test system: HEK293FT cells transfected with TF library
Experiment: Screening of TF condensates based on fluorescent puncta
Format: cell-based
Conditions: Figure 1B numerical data; TF library screen, one value per transcriptional factor
How it was run: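 HEK293FT, PEI transfection of TF library, 60 h; ±glucose 12 h; 4% PFA fix, 0.05% Triton X-100 permeabilization, 5% BSA block; anti-Flag/anti-GAL4 overnight at 4 °C, Alexa 488 secondary 1 h; high-content imaging, 50 fields/well.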

Molecule	Z score of condensed fraction
B1	2.586
B2	-0.6353
B3	-0.2156
B4	-0.571
B5	-0.574
B6	-0.7176
B7	-0.6844
B8	-0.6816
B9	1.0628
B10	-0.8477
B11	-0.6325
B12	-0.7251
B13	0.2806
B14	0.1658
